{"source": "patent US20230136301A1", "about": "“Corticosteriod Reduction in Treatment with Anti-CD38 Antibody” (Janssen Biotech, Inc., priority 2021, published 2023)", "tested_on": "patients with RRMM", "assay": "PAVO Part 3: treatment-emergent adverse events with DARA SC and corticosteroid tapering", "note": "“And” between values parts separate entries of the source, which are not always exact repeats. Equal entries are not always repeated.", "method": "The PAVO (MMY1004) trial is an open-label, nonrandomized, multicenter, phase lb study consisting of 3 parts. […] Safety was assessed, with an emphasis on IRRs, while corticosteroids were reduced and discontinued.\nThe purpose of Part 3 was to evaluate the safety of daratumumab 1,800 mg SC delivery without predose and postdose corticosteroids after a 3-week, 2-week, and 1-week tapering schedule to assess the safety of corticosteroid-free SC daratumumab administration. A total of 42 participants were treated. […] In conjunction, patients also received a 3-week, 2-week, or 1-week steroid tapering schedule (FIG. 2). The 3-week tapering schedule (corticosteroid-free by Cycle 1 Day 22) consisted of methylprednisolone (MP) given orally (PO)/IV pre-dose (Cycle 1 Day 1, 100 mg; Cycle 1 Day 8, 60 mg; Cycle 1 Day 15, 30 mg) and PO post-dose (Cycle 1 Day 1, 20 mg for 2 days; Cycle 1 Day 8, 20 mg for 1 day; Cycle 1 Day 15, 20 mg for 1 day). The 2-week tapering schedule (corticosteroid-free by Cycle 1 Day 15) consisted of MP given PO/IV pre-dose (Cycle 1 Day 1, 100 mg; Cycle 1 Day 8, 60 mg) and PO post-dose (Cycle 1 Day 1, 20 mg for 2 days; Cycle 1 Day 8, 20 mg for 1 day). The 1-week tapering schedule (corticosteroid-free by Cycle 1 Day 8) consisted of dexamethasone 20 mg administered IV pre-dose on Cycle 1 Day 1, without post-dose administration.\nThe 3-week, 2-week and 1-week steroid tapering schedules were assessed by “3+3” design, followed by cohort expansion to approximately 15 patients (3-week and 2-week tapering cohorts) or 12 patients (1-week tapering cohort). The dose-limiting toxicity (DLT) assessment period in the 3-week, 2-week and 1-week tapering cohorts were Cycle 1 Day 1 through Cycle 2 Day 4, Cycle 1 Day 1 through Cycle 1 Day 25, and Cycle 1 Day 1 through Cycle 1 Day 11, respectively. […] Grade 3 or 4 IRRs only qualified as DLTs if they occurred during corticosteroid reduction or discontinuation (not during Cycle 1 Day 1). For the 3-week and 2-week groups, IRRs reported at Cycle 1 Day 1 were not considered DLTs, as corticosteroids had not yet been reduced or discontinued. Up to approximately 12 patients could be enrolled in the 1-week tapering schedule to assess safety, including IRRs.\nSafety assessments included treatment-emergent adverse events (TEAEs), serious adverse events, and IRRs. All toxicities were graded according to the National Cancer Institute's Common Terminology for the Classification of Adverse Events (NCI-CTCAE) Version 4.03 (National Cancer Institute. Common Terminology Criteria for Adverse Events (CTCAE): Version 4.03.).\nThe safety and efficacy populations, defined as all patients who received ≥1 dose of study drug, was the primary population for analysis. […] The pharmacokinetic-evaluable population was defined as all patients who received ≥1 dose of study drug and provided ≥1 post-infusion pharmacokinetic sample. The immunogenicity population was defined as all patients who received ≥1 dose of study drug and provided ≥1 post-infusion immunogenicity sample.", "data": [{"substance": "DARA SC: 1,800 mg daratumumab co-formulated with 30,000 U rHuPH20 (2,000 U/mL, 15 mL), manual subcutaneous injection", "values": [{"measurement": "Grade 5 TEAEs", "setting": "2-week taper, general physical health deterioration", "value": "1 (6.7%) n (%)"}, {"measurement": "Grade ≥3 TEAEs, participants", "setting": "3-week taper", "value": 60, "unit": "%"}, {"measurement": "Nausea, participants", "setting": "3-week taper", "value": 53, "unit": "%"}, {"measurement": "Nervous system disorders", "setting": "3-week taper", "value": 46.7, "unit": "%"}, {"measurement": "Patients who died due to complications from DLBCL", "setting": "3-week taper", "value": "One"}, {"measurement": "TEAEs with an outcome of death", "setting": "3-week taper", "value": "No deaths"}, {"measurement": "Anemia, any grade TEAE", "setting": "3-week taper n=15", "value": "1 (6.7) n (%) and 1 (6.7%) n (%)"}, {"measurement": "Anemia, grade ≥3 TEAE", "setting": "3-week taper n=15", "value": "1 (6.7) n (%) and 1 (6.7%) n (%)"}, {"measurement": "Any TEAE", "setting": "3-week taper n=15", "value": "15 (100)^ n (%) and 15 (100.0%) n (%)"}, {"measurement": "Any grade ≥3 TEAE", "setting": "3-week taper n=15", "value": "9 (60.0) n (%) and 9 (60.0%) n (%)"}, {"measurement": "Arthralgia, any grade TEAE", "setting": "3-week taper n=15", "value": "3 (20.0) n (%) and 3 (20.0%) n (%)"}, {"measurement": "Asthenia, any grade TEAE", "setting": "3-week taper n=15", "value": "1 (6.7) n (%) and 1 (6.7%) n (%)"}, {"measurement": "Back pain, TEAE", "setting": "3-week taper n=15", "value": "1 (6.7%) n (%)"}, {"measurement": "Blood and lymphatic system disorders (SOC), TEAE", "setting": "3-week taper n=15", "value": "4 (26.7%) n (%)"}, {"measurement": "Blood and lymphatic system disorders (SOC), grade 3 or higher TEAE", "setting": "3-week taper n=15", "value": "3 (20.0%) n (%)"}, {"measurement": "Bone pain, TEAE", "setting": "3-week taper n=15", "value": "2 (13.3%) n (%)"}, {"measurement": "Bone pain, grade ≥3 TEAE", "setting": "3-week taper n=15", "value": "1 (6.7) n (%) and 1 (6.7%) n (%)"}, {"measurement": "Chills, TEAE", "setting": "3-week taper n=15", "value": "2 (13.3%) n (%)"}, {"measurement": "Constipation, TEAE", "setting": "3-week taper n=15", "value": "2 (13.3%) n (%)"}, {"measurement": "Cough, any grade TEAE", "setting": "3-week taper n=15", "value": "3 (20.0) n (%) and 3 (20.0%) n (%)"}, {"measurement": "Decreased appetite, TEAE", "setting": "3-week taper n=15", "value": "3 (20.0%) n (%)"}, {"measurement": "Diarrhea, any grade TEAE", "setting": "3-week taper n=15", "value": "4 (26.7) n (%) and 4 (26.7%) n (%)"}, {"measurement": "Dizziness, any grade TEAE", "setting": "3-week taper n=15", "value": "4 (26.7) n (%) and 4 (26.7%) n (%)"}, {"measurement": "Erythema, any grade TEAE", "setting": "3-week taper n=15", "value": "2 (13.3) n (%) and 2 (13.3%) n (%)"}, {"measurement": "Fatigue, any grade TEAE", "setting": "3-week taper n=15", "value": "4 (26.7) n (%) and 4 (26.7%) n (%)"}, {"measurement": "Gastrointestinal disorders (SOC), TEAE", "setting": "3-week taper n=15", "value": "9 (60.0%) n (%)"}, {"measurement": "General disorders and administration site conditions (SOC), TEAE", "setting": "3-week taper n=15", "value": "11 (73.3%) n (%)"}, {"measurement": "Headache, any grade TEAE", "setting": "3-week taper n=15", "value": "5 (33.3) n (%) and 5 (33.3%) n (%)"}, {"measurement": "Lymphopenia, grade ≥3 TEAE", "setting": "3-week taper n=15", "value": "2 (13.3%) n (%) and 2 (13.3) n (%)"}, {"measurement": "Metabolism and nutrition disorders (SOC), TEAE", "setting": "3-week taper n=15", "value": "7 (46.7%) n (%)"}, {"measurement": "Muscle spasms, any grade TEAE", "setting": "3-week taper n=15", "value": "1 (6.7) n (%)"}, {"measurement": "Musculoskeletal and connective tissue disorders (SOC), TEAE", "setting": "3-week taper n=15", "value": "6 (40.0%) n (%)"}, {"measurement": "Musculoskeletal and connective tissue disorders (SOC), grade 3 or higher TEAE", "setting": "3-week taper n=15", "value": "2 (13.3%) n (%)"}, {"measurement": "Nasopharyngitis, any grade TEAE", "setting": "3-week taper n=15", "value": "5 (33.3) n (%) and 5 (33.3%) n (%)"}, {"measurement": "Nausea, any grade TEAE", "setting": "3-week taper n=15", "value": "8 (53.5%) n (%) and 8 (53.3%) n (%) and 8 (53.3) n (%)"}, {"measurement": "Nervous system disorders (SOC), TEAE", "setting": "3-week taper n=15", "value": "7 (46.7%) n (%)"}, {"measurement": "Neutropenia, grade ≥3 TEAE", "setting": "3-week taper n=15", "value": "0 n (%)"}, {"measurement": "Oropharyngeal pain, TEAE", "setting": "3-week taper n=15", "value": "2 (13.3%) n (%)"}, {"measurement": "Pain in extremity, any grade TEAE", "setting": "3-week taper n=15", "value": "4 (26.7) n (%) and 4 (26.7%) n (%)"}, {"measurement": "Patients with a serious TEAE", "setting": "3-week taper n=15", "value": "6 (40.0%) n (%)"}, {"measurement": "Peripheral edema, any grade TEAE", "setting": "3-week taper n=15", "value": "1 (6.7) n (%) and 1 (6.7%) n (%)"}, {"measurement": "Pyrexia, any grade TEAE", "setting": "3-week taper n=15", "value": "4 (26.7) n (%) and 4 (26.7%) n (%)"}, {"measurement": "Respiratory, thoracic and mediastinal disorders (SOC), TEAE", "setting": "3-week taper n=15", "value": "6 (40.0%) n (%)"}, {"measurement": "Skin and subcutaneous tissue disorders (SOC), TEAE", "setting": "3-week taper n=15", "value": "6 (40.0%) n (%)"}, {"measurement": "Vomiting, TEAE", "setting": "3-week taper n=15", "value": "2 (13.3%) n (%)"}, {"measurement": "Anemia, TEAE of Grade >3", "setting": "PAVO Part 3", "value": 9.5, "unit": "%"}, {"measurement": "Serious TEAEs in SOC General disorders and administration site conditions", "setting": "PAVO Part 3", "value": 4.8, "unit": "%"}, {"measurement": "TEAEs in SOC General disorders and administration site conditions", "setting": "PAVO Part 3", "value": 71.4, "unit": "%"}, {"measurement": "Anemia, any grade TEAE", "setting": "Total n=42", "value": "7 (16.7) n (%) and 7 (16.7%) n (%)"}, {"measurement": "Anemia, grade ≥3 TEAE", "setting": "Total n=42", "value": "4 (9.5) n (%) and 4 (9.5%) n (%)"}, {"measurement": "Any grade ≥3 TEAE", "setting": "Total n=42", "value": "21 (50.0%) n (%) and 21 (50.0) n (%)"}, {"measurement": "Arthralgia, any grade TEAE", "setting": "Total n=42", "value": "10 (23.8) n (%) and 10 (23.8%) n (%)"}, {"measurement": "Asthenia, any grade TEAE", "setting": "Total n=42", "value": "7 (16.7) n (%) and 7 (16.7%) n (%)"}, {"measurement": "Back pain, TEAE", "setting": "Total n=42", "value": "6 (14.3%) n (%)"}, {"measurement": "Blood and lymphatic system disorders (SOC), TEAE", "setting": "Total n=42", "value": "11 (26.2%) n (%)"}, {"measurement": "Blood and lymphatic system disorders (SOC), grade 3 or higher TEAE", "setting": "Total n=42", "value": "8 (19.0%) n (%)"}, {"measurement": "Bone pain, TEAE", "setting": "Total n=42", "value": "7 (16.7%) n (%)"}, {"measurement": "Bone pain, grade ≥3 TEAE", "setting": "Total n=42", "value": "3 (7.1) n (%) and 3 (7.1%) n (%)"}, {"measurement": "Chills, TEAE", "setting": "Total n=42", "value": "5 (11.9%) n (%)"}, {"measurement": "Constipation, TEAE", "setting": "Total n=42", "value": "7 (16.7%) n (%)"}, {"measurement": "Cough, any grade TEAE", "setting": "Total n=42", "value": "7 (16.7) n (%) and 7 (16.7%) n (%)"}, {"measurement": "Decreased appetite, TEAE", "setting": "Total n=42", "value": "5 (11.9%) n (%)"}, {"measurement": "Diarrhea, any grade TEAE", "setting": "Total n=42", "value": "11 (26.2) n (%) and 11 (26.2%) n (%)"}, {"measurement": "Dizziness, any grade TEAE", "setting": "Total n=42", "value": "5 (11.9) n (%) and 5 (11.9%) n (%)"}, {"measurement": "Erythema, any grade TEAE", "setting": "Total n=42", "value": "6 (14.3) n (%) and 6 (14.3%) n (%)"}, {"measurement": "Fatigue, any grade TEAE", "setting": "Total n=42", "value": "9 (21.4) n (%) and 9 (21.4%) n (%)"}, {"measurement": "Gastrointestinal disorders (SOC), TEAE", "setting": "Total n=42", "value": "24 (57.1%) n (%)"}, {"measurement": "General disorders and administration site conditions (SOC), TEAE", "setting": "Total n=42", "value": "30 (71.4%) n (%)"}, {"measurement": "Headache, any grade TEAE", "setting": "Total n=42", "value": "7 (16.7) n (%) and 7 (16.7%) n (%)"}, {"measurement": "Lymphopenia, grade ≥3 TEAE", "setting": "Total n=42", "value": "3 (7.1) n (%) and 3 (7.1%) n (%)"}, {"measurement": "Metabolism and nutrition disorders (SOC), TEAE", "setting": "Total n=42", "value": "12 (28.6%) n (%)"}, {"measurement": "Muscle spasms, any grade TEAE", "setting": "Total n=42", "value": "4 (9.5) n (%)"}, {"measurement": "Musculoskeletal and connective tissue disorders (SOC), TEAE", "setting": "Total n=42", "value": "23 (54.8%) n (%)"}, {"measurement": "Musculoskeletal and connective tissue disorders (SOC), grade 3 or higher TEAE", "setting": "Total n=42", "value": "4 (9.5%) n (%)"}, {"measurement": "Nasopharyngitis, any grade TEAE", "setting": "Total n=42", "value": "11 (26.2) n (%) and 11 (26.2%) n (%)"}, {"measurement": "Nausea, any grade TEAE", "setting": "Total n=42", "value": "13 (31.0) n (%) and 13 (31.0%) n (%)"}, {"measurement": "Nervous system disorders (SOC), TEAE", "setting": "Total n=42", "value": "13 (31.0%) n (%)"}, {"measurement": "Neutropenia, grade ≥3 TEAE", "setting": "Total n=42", "value": "3 (7.1) n (%) and 3 (7.1%) n (%)"}, {"measurement": "Oropharyngeal pain, TEAE", "setting": "Total n=42", "value": "5 (11.9%) n (%)"}, {"measurement": "Pain in extremity, any grade TEAE", "setting": "Total n=42", "value": "8 (19.0) n (%) and 8 (19.0%) n (%)"}, {"measurement": "Patients who died during the study", "setting": "Total n=42", "value": 6, "unit": "patients"}, {"measurement": "Patients with a grade 3/4 TEAE", "setting": "Total n=42", "value": "18 (42.9%) n (%)"}, {"measurement": "Patients with a serious TEAE", "setting": "Total n=42", "value": "16 (38.1%) n (%)"}, {"measurement": "Peripheral edema, any grade TEAE", "setting": "Total n=42", "value": "5 (11.9) n (%) and 5 (11.9%) n (%)"}, {"measurement": "Pyrexia, any grade TEAE", "setting": "Total n=42", "value": "9 (21.4) n (%) and 9 (21.4%) n (%)"}, {"measurement": "Respiratory, thoracic and mediastinal disorders (SOC), TEAE", "setting": "Total n=42", "value": "15 (35.7%) n (%)"}, {"measurement": "Skin and subcutaneous tissue disorders (SOC), TEAE", "setting": "Total n=42", "value": "11 (26.2%) n (%)"}, {"measurement": "Vomiting, TEAE", "setting": "Total n=42", "value": "6 (14.3%) n (%)"}, {"measurement": "Patients who died due to progressive disease", "setting": "all cohorts, 1 in each cohort", "value": 3, "unit": "patients"}]}]}
